Data: article PMC6599211, “Structural basis of TFIIH activation for nucleotide excision repair” (Nature Communications, 2019)

Legend:
[1] = target: XPB (core TFIIH);XPD (core TFIIH);p62 (core TFIIH);p52 (core TFIIH);p44 (core TFIIH);p34 (core TFIIH);TTDA/p8 … (Homo sapiens;Homo sapiens;Homo …, UniProt P19447;P18074;P32780;Q92759;Q13888;Q13889;Q6ZYL4;P23025 …, |||||||); experiment: cryo-EM structure (3.6 A); 2 mM Mg2+ at assembly; XPG E791A added (3:1 excess over TFIIH) but not visible in the map; glutaraldehyde-fixed gradient; DNA register shift not excluded; Complex assembly: 150 mM KCl, 20 mM KOH:HEPES pH 7.0, 10% glycerol, 2 mM MgCl2, 5 mM beta-mercaptoethanol; sucrose gradient pH 7.5, 4 C, 0.1% glutaraldehyde; helicase/triplex assays (turnover) left out; conditions: copies: 1;1;1;1;1;1;1;1; fork, 29 bp duplex 1:21-49 with 2:1-29; unpaired arms 20 nt 5' (strand 1: 1-20) and 20 nt 3' (strand 2: 30-49)
[2] = target: human TFIIH core module (core TFIIH), seven subunits: XPB, XPD, p62, p52, p44, p34, TTDA (human, UniProt P19447 1-782; P18074 1-760; P32780 1-548; Q92759 1-462; Q13888 1-395; Q13889 …); experiment: cell-based or functional assay

Binder	binding result [1]	XPD 5′–3′ helicase activity of core TFIIH (rate of DNA unwinding, stopped-flow kinetics), with XPG against without [2]
cryo-EM DNA scaffold (forked) (mixed) DNA 1: CAAAGTCACGACCTAGACACTGCGAGCTCGAATTCACTGGAGTGACCTC DNA 2: GAGGTCACTCCAGTGAATTCGAGCTCGCAACAATGAGCACATACCTAGT	binds	
XPG (natural protein, human, UniProt P28715 1-1186, looked up) MGVQGLWKLLECSGRQVSPEALEGKILAVDISIWLNQALKGVRDRHGNSIENPHLLTLFHRLCKLLFFRIRPIFVFDGDAPLLKKQTLVKRRQRKDLASSDSRKTTEKLLKTFLKRQAIKTAFRSKRDEALPSLTQVRRENDLYVLPPLQEEEKHSSEEEDEKEWQERMNQKQALQEEFFHNPQAIDIESEDFSSLPPEVKHEILTDMKEFTKRRRTLFEAMPEESDDFSQYQLKGLLKKNYLNQHIEHVQKEMNQQHSGHIRRQYEDEGGFLKEVESRRVVSEDTSHYILIKGIQAKTVAEVDSESLPSSSKMHGMSFDVKSSPCEKLKTEKEPDATPPSPRTLLAMQAALLGSSSEEELESENRRQARGRNAPAAVDEGSISPRTLSAIKRALDDDEDVKVCAGDDVQTGGPGAEEMRINSSTENSDEGLKVRDGKGIPFTATLASSSVNSAEEHVASTNEGREPTDSVPKEQMSLVHVGTEAFPISDESMIKDRKDRLPLESAVVRHSDAPGLPNGRELTPASPTCTNSVSKNETHAEVLEQQNELCPYESKFDSSLLSSDDETKCKPNSASEVIGPVSLQETSSIVSVPSEAVDNVENVVSFNAKEHENFLETIQEQQTTESAGQDLISIPKAVEPMEIDSEESESDGSFIEVQSVISDEELQAEFPETSKPPSEQGEEELVGTREGEAPAESESLLRDNSERDDVDGEPQEAEKDAEDSLHEWQDINLEELETLESNLLAQQNSLKAQKQQQERIAATVTGQMFLESQELLRLFGIPYIQAPMEAEAQCAILDLTDQTSGTITDDSDIWLFGARHVYRNFFNKNKFVEYYQYVDFHNQLGLDRNKLINLAYLLGSDYTEGIPTVGCVTAMEILNEFPGHGLEPLLKFSEWWHEAQKNPKIRPNPHDTKVKKKLRTLQLTPGFPNPAVAEAYLKPVVDDSKGSFLWGKPDLDKIREFCQRYFGWNRTKTDESLFPVLKQLDAQQTQLRIDSFFRLAQQEKEDAKRIKSQRLNRAVTCMLRKEKEAAASEIEAVSVAMEKEFELLDKAKGKTQKRGITNTLEESSSLKRKRLSDSKGKNTCGGFLGETCLSESSDGSSSEDAESSSLMNVQRRTAAKEPKTSASDSQNSVKEAPVKNGGATTSSSSDSDDDGGKEKMVLVTARSVFGKKRRKLRRARGRKRKT		20 fold
